Consider 38 sequences from the supplement of paper PMC7877785.

± gives the uncertainty stated by the source.

This series in a line: self-splicing fitness, log relative to wild type (ln ratio); higher = more splicing; Tetrahymena group I intron in knt gene, E. coli kanamycin selection, DiMSum; sequences stand for … in CUCUCU…GGAGGGAAAAGUUAUCAGGCAUGCACCUGGUAGCUAGUCUUUAAACCAAUAGAUUGCAUCGGUUUAAAAGGCAAGACCGUCAAAUUGCGGGAAAGGGGUCAACAGCCGUUCAGUACCAAGUCUCAGGGGAAACUUUGAGAUGGCCUUGCAAAGGGUAUGGUAAUAAGCUGACGGACAUGGUCCUAACCACGCAGCCAAGUCCUAAGUCAACAGAUCUUCUGUUGAUAUGGAUGCAGUUCACAGACUAAAUGUCGGUCGGGGAAGAUGUAUUCUUCUCAUAAGAUAUAGUCGGACCUCUCCUUAAUGGGAGCUAGCGGAUGAAGUGAUGCAACACUGGAGCCGCUGGGAACUAAUUUGUAUGCGAAAGUAUAUUGAUUAGUUUUGGAGUACUCGUGGUCG
The essentials: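 The eight P1ex-region nucleotides of an intron in the knt kanamycin-resistance gene on pET-22b(+) were all randomised and the library put into E. coli BL21(DE3). Six replicate transformations were grown overnight at 37°C or 30°C on LB agar with or without 25 μg/mL kanamycin, together with 100 μg/mL carbenicillin, 50 μM IPTG and 0.2% rhamnose. Colonies were pooled and amplicon-sequenced on an Illumina HiSeq 2500. Fitness from DiMSum is the error-weighted combination of wild-type-normalised replicate fold changes, kanamycin over none.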

With GAAAAGCAAUAUUACGAAGC, the “self-splicing fitness (ln)” value (30 °C) is -3.19 ± 0.22 and the “self-splicing fitness (ln)” value (37 °C) is -2.65 ± 0.28. Taken in the same sequence, the figures for UGCAAGCAAUAUUACGCCCU were -0.189 ± 0.15 and 0.448 ± 0.14. Taken in the same sequence, the figures for CGCUAGCAAUAUUACGAGCU were -0.561 ± 0.11 and -0.7 ± 0.11. The like results for GCUUAGCAAUAUUACGAGUG were, in that order, -0.38 ± 0.096 and -0.545 ± 0.11. Take CAGUAGCAAUAUUACGCAUA: the “self-splicing fitness (ln)” value is -2.04 ± 0.2 (30 °C) and -1.59 ± 0.21 (37 °C). For the sequence GCUGAGCAAUAUUACGUUGU, the “self-splicing fitness (ln)” value by setting is: (30 °C) -3.56 ± 0.14; (37 °C) -2.83 ± 0.17. Taken in the same sequence, the figures for UAGAAGCAAUAUUACGCGAG were -0.342 ± 0.12 and -0.636 ± 0.12.

GCACAGCAAUAUUACGUCUC: the “self-splicing fitness (ln)” value (30 °C) was -0.14 ± 0.056 and the “self-splicing fitness (ln)” value (37 °C) was determined as 0.38 ± 0.059. The like results for UGAUAGCAAUAUUACGUCAG were, in that order, -1.84 ± 0.1 and -1.03 ± 0.12.

Take ACACAGCAAUAUUACGUGGA: the “self-splicing fitness (ln)” value was -2.25 ± 0.096 (30 °C) and -1.18 ± 0.066 (37 °C). Regarding UACUAGCAAUAUUACGCGUA, the “self-splicing fitness (ln)” value (30 °C) is -2.63 ± 0.22 and the “self-splicing fitness (ln)” value (37 °C) was -2.33 ± 0.23. Taken in the same sequence, the figures for AAGGAGCAAUAUUACGCAAA were -3.1 ± 0.3 and -2.7 ± 0.32. Taken in the same sequence, the figures for CAUUAGCAAUAUUACGAAUC were -4.46 ± 0.31 and -2.49 ± 0.18. Regarding GUUUAGCAAUAUUACGUAUG, the “self-splicing fitness (ln)” value is, setting by setting: (30 °C) -2.29 ± 0.21; (37 °C) -0.712 ± 0.17.

Turning to GUUAAGCAAUAUUACGUCGU, the “self-splicing fitness (ln)” value (30 °C) is -0.93 ± 0.078 and the “self-splicing fitness (ln)” value (37 °C) is -0.441 ± 0.081.

For GUUUAGCAAUAUUACGACCU, the “self-splicing fitness (ln)” value runs as follows: (30 °C) -1.03 ± 0.11; (37 °C) -0.456 ± 0.14. AUUGAGCAAUAUUACGGCAC: the “self-splicing fitness (ln)” value runs as follows: (30 °C) -3.48 ± 0.37; (37 °C) -0.518 ± 0.33.

In the case of GCAAAGCAAUAUUACGUCAA, the “self-splicing fitness (ln)” value by setting is: (30 °C) -3.16 ± 0.19; (37 °C) -2.02 ± 0.14. CUGCAGCAAUAUUACGCCGA: where the note is “37 °C”, the “self-splicing fitness (ln)” value is -2.61 ± 0.36. As for GCCAAGCAAUAUUACGACAG, the “self-splicing fitness (ln)” value was -3.63 ± 0.2 (30 °C) and -3.8 ± 0.39 (37 °C). Taken in the same sequence, the figures for ACCGAGCAAUAUUACGCGUU were -2.95 ± 0.16 and -1.58 ± 0.18. Taken in the same sequence, the figures for CAAGAGCAAUAUUACGUCCG were -1.66 ± 0.087 and -0.696 ± 0.13.

As to AGGCAGCAAUAUUACGAUAA, the “self-splicing fitness (ln)” value was -1.82 ± 0.11 (30 °C) and -2.3 ± 0.16 (37 °C). Taken in the same sequence, the figures for AUGCAGCAAUAUUACGGUCG were -1.41 ± 0.11 and -0.972 ± 0.14. For AGCUAGCAAUAUUACGCCGA, the “self-splicing fitness (ln)” value (30 °C) was -1.4 ± 0.4. In the case of CAAUAGCAAUAUUACGUAUU, the “self-splicing fitness (ln)” value (30 °C) was -3.25 ± 0.21 and the “self-splicing fitness (ln)” value (37 °C) is -2.65 ± 0.18.

In the case of AGCAAGCAAUAUUACGAAUG, the “self-splicing fitness (ln)” value was -3.77 ± 0.18 (30 °C) and -1.71 ± 0.13 (37 °C).

Regarding UCACAGCAAUAUUACGGCUC, the “self-splicing fitness (ln)” value was -2.9 ± 0.22 (30 °C) and -1.87 ± 0.21 (37 °C). Taken in the same sequence, the figures for CGCGAGCAAUAUUACGAUAG were -1.05 ± 0.13 and -0.593 ± 0.16. Taken in the same sequence, the figures for AGUUAGCAAUAUUACGGCGA were 0.115 ± 0.16 and 0.709 ± 0.16. The like results for GAAUAGCAAUAUUACGAAUU were, in that order, -1.78 ± 0.084 and -0.497 ± 0.1. GAUAAGCAAUAUUACGGCCA: the “self-splicing fitness (ln)” value runs as follows: (30 °C) -1.15 ± 0.18; (37 °C) 0.818 ± 0.17. The like results for UGAAAGCAAUAUUACGCGAU were, in that order, -2.15 ± 0.14 and -2.37 ± 0.19. Taken in the same sequence, the figures for CACGAGCAAUAUUACGGCGA were -3.28 ± 0.19 and -2.69 ± 0.26.

As for UGCCAGCAAUAUUACGUAAA, the “self-splicing fitness (ln)” value is, setting by setting: (30 °C) -1.24 ± 0.093; (37 °C) -0.956 ± 0.12. The like results for UUCGAGCAAUAUUACGAGCU were, in that order, -3.65 ± 0.43 and -2.44 ± 0.45.

On to AAAAAGCAAUAUUACGGUAU, for which the “self-splicing fitness (ln)” value is -2.2 ± 0.08 (30 °C) and -0.966 ± 0.08 (37 °C). The like results for UUUAAGCAAUAUUACGCUAA were, in that order, -2.34 ± 0.17 and -1.09 ± 0.19.
